Reference: article PMC13083928, “ALS mutations disrupt self-association between the ubiquilin STI1 hydrophobic groove and internal placeholder sequences” (The EMBO Journal, 2026)

Assays:
[1] = biological target: 3xHA-Sec61β soluble domain-Omp25 TMD-3F4 (single substrate); conditions: 3 μM recombinant 3xFLAG-UBQLN2 variants; parent: est. 49; read off a plot
[2] = biological target: the molecule itself; experiment: crystal structure; STI1-FrzS-TMD fusion construct; hanging-drop vapor diffusion at 4 °C, 2.5% MPD, 100 mM Tris pH 8.5; 1.98 Å

| Molecule | response (Elution / Input) [1] | binding result [2] |
| --- | --- | --- |
| 3xFLAG-UBQLN2 (wild type), recombinant (from UniProt Q9UHD9) M446R | 57 |  |
| 3xFLAG-UBQLN2 (wild type), recombinant (from UniProt Q9UHD9) P440L | 54 |  |
| MMIALGVACAIALAIAAVYF (variant of the VAMP2 TMD; Written as a molecule of its own because it is joined with the STI1 domain on one chain for the structure; in the experiment it was part of m1; source: part of the STI1-FrzS-TMD fusion; E. coli BL21 DE3 pRIL, purified (Ni-NTA, SEC)) [variant of the VAMP2 TMD, as it stands in the crystallization construct] |  | binds |
